The record followed here is PMC7076203.

This experiment deals with WT APP (amyloid precursor protein) stably expressed in H4-APPwt cells (human) (UniProt P05067).
Sequence of WT APP (amyloid precursor protein) stably expressed in H4-APPwt cells (human) (P05067 18-770): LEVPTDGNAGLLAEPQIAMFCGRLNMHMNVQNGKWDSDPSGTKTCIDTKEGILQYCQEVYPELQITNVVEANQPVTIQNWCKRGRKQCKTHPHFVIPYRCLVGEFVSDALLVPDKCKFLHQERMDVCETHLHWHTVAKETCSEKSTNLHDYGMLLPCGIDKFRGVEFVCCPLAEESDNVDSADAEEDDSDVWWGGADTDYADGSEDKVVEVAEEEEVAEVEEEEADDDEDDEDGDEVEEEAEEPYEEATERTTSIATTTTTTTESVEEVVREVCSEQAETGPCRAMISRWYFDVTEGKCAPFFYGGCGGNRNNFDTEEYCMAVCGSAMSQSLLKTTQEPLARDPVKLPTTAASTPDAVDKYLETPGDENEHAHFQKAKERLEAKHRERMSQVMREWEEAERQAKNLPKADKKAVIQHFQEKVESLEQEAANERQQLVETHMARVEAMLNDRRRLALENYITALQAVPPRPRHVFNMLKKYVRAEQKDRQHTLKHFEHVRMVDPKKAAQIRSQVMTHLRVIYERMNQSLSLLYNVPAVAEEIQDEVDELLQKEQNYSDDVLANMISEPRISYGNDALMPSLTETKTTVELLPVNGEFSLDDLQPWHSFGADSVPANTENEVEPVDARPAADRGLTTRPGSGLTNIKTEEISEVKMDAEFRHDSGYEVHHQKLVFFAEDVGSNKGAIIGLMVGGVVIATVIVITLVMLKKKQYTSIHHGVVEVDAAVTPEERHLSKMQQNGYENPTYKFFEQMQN

Sequence of GAL3BP (preparation not stated) (Q08380 19-585): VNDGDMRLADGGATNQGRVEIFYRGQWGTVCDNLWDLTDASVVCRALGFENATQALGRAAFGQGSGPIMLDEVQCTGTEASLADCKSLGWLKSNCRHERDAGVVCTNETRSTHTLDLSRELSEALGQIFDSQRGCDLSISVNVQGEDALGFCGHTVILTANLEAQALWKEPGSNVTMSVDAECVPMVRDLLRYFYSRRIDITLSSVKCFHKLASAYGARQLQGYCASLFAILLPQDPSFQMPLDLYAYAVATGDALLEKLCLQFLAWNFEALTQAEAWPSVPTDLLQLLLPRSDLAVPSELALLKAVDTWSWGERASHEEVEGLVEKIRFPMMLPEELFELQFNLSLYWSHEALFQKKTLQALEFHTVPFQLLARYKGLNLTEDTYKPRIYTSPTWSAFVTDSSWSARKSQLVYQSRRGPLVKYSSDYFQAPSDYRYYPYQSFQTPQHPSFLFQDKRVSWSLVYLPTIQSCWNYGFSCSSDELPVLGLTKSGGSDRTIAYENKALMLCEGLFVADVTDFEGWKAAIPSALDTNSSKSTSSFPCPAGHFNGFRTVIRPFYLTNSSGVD

“GAL3BP (preparation not stated) (from UniProt Q08380 19-585) (natural protein)” registered a suppression of Aβ40 and Aβ42 production in H4-APPwt cells by GAL3BP of 30%.
